Laboratory results taken from PMC8712213 (Nature, 2020).

Target: ALG6 from Saccharomyces cerevisiae (tag-cleaved) (S. cerevisiae, UniProt Q12001)
Assay: SEC

ALG6 from Saccharomyces cerevisiae (tag-cleaved), sequence (Q12001 whole entry): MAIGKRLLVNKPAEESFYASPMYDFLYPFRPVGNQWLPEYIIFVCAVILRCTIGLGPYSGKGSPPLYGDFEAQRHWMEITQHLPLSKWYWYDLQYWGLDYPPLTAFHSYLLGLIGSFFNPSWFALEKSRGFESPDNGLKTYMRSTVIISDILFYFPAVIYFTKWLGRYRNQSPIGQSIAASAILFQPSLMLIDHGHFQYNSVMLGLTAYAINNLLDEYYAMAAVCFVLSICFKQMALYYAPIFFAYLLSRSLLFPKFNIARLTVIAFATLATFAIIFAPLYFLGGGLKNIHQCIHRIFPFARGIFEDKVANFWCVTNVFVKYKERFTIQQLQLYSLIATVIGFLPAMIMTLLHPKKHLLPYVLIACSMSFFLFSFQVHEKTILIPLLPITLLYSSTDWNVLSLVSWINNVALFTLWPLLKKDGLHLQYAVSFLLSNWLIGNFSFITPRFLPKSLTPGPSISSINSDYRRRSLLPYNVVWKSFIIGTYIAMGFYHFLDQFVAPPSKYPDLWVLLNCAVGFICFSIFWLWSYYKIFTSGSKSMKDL

- binding result: binds
B1: 6AG9-Fab (Fab, V domains shown)
VH: EVQLVESGGGLVQPGGSLRLSCAASGFNVYSSSIHWVRQAPGKGLEWVASISSYSGYTSYADSVKGRFTISADTSKNTAYLQMNSLRAEDTAVYYCAREYWSWYSYSYGIDYWGQGTLVTVSS
VL: DIQMTQSPSSLSASVGDRVTITCRASQSVSSAVAWYQQKPGKAPKLLIYSASSLYSGVPSRFSGSRSGTDFTLTISSLQPEDFATYYCQQSYWVGYPITFGQGTKVEIK
